Data reported in patent US20260242735A1 (UNIVERSIT T BASEL, published 2026).
Values belong to the binder of their own block, whether it stands above or below them.

Columns and labels:
human wild-type CD33 [1] = molecular target: T1, human wild-type CD33 (human, UniProt P20138 18-364); assay: flow cytometry, IgG at 0.50 ug/ml on HEK293-T cells expressing CD33 against vector alone
T1 construct: also called SIGLEC3; P67
Method: (§1) Binding of the antibodies to the transfected cells and the optimal assay conditions were evaluated in 384-well format. Detection of cellular expression was measured via high-throughput flow cytometry. Serial dilutions of each antibody were tested for immunoreactivity against cells expressing CD33 or vector alone. The optimal screening concentration for each antibody was determined based on the raw signal values and signal-to-background calculations. Each point represents the mean of four replicates.

human CD33 V39A = human CD33 V39A (human, UniProt P20138 18-364); assay: flow cytometry, alanine scan
Method: (§2) An alanine scan on human CD33 was performed to the determine the residues on CD33 that are involved in binding to the antibodies investigated. […] Briefly, a mutation library of CD33 was created by high-throughput, site-directed mutagenesis. Each residue was individually mutated to alanine, with alanine codons mutated to serine. The mutant library was arrayed in 384-well microplates and transiently transfected into HEK293-T. Following transfection, cells were incubated with the indicated antibodies (IgG or Fab) at concentrations pre-determined using an independent immunofluorescence titration curve on wild type CD33. […] Binding of each antibody to each mutant clone was determined in duplicates. For each point, background fluorescence was subtracted from the raw data, which were then normalized to antibody reactivity with wild type CD33.
(§3) Critical residues for antibody binding (outlined in dark grey) were residues whose mutations led to a binding of the test Abs of less than 20%. Additional secondary residues (outlined in light grey) were identified that led to a binding of the test Abs of between 20 and 40% as compared to the wild type CD33.

human CD33 D18A = human CD33 D18A (human, UniProt P20138 19-364); assay: flow cytometry, alanine scan
Method: as §2, §3

human CD33 V25A = human CD33 V25A (human, UniProt P20138 18-364); assay: flow cytometry, alanine scan
Method: as §2, §3

human CD33 L38A = human CD33 L38A (human, UniProt P20138 18-364); assay: flow cytometry, alanine scan
Method: as §2, §3

human CD33 L35A = human CD33 L35A (human, UniProt P20138 18-364); assay: flow cytometry, alanine scan
Method: as §2, §3

human CD33 Q24A = human CD33 Q24A (human, UniProt P20138 18-364); assay: flow cytometry, alanine scan
Method: as §2, §3

human CD33 P19A = human CD33 P19A (human, UniProt P20138 18-364); assay: flow cytometry, alanine scan
Method: as §2, §3

human CD33 H45A = human CD33 H45A (human, UniProt P20138 18-364); assay: flow cytometry, alanine scan
Method: as §2, §3

human CD33 E27A = human CD33 E27A (human, UniProt P20138 18-364); assay: flow cytometry, alanine scan
Method: as §2, §3

human CD33 N20A = human CD33 N20A (human, UniProt P20138 18-364); assay: flow cytometry, alanine scan
Method: as §2, §3

human CD33 W22A = human CD33 W22A (human, UniProt P20138 18-364); assay: flow cytometry, alanine scan
Method: as §2, §3

human CD33 V37A = human CD33 V37A (human, UniProt P20138 18-364); assay: flow cytometry, alanine scan
Method: as §2, §3

human CD33 F43A = human CD33 F43A (human, UniProt P20138 18-364); assay: flow cytometry, alanine scan
Method: as §2, §3

human CD33 F44A = human CD33 F44A (human, UniProt P20138 18-364); assay: flow cytometry, alanine scan
Method: as §2, §3

human CD33 Q26A = human CD33 Q26A (human, UniProt P20138 18-364); assay: flow cytometry, alanine scan
Method: as §2, §3

human CD33 F21A = human CD33 F21A (human, UniProt P20138 18-364); assay: flow cytometry, alanine scan
Method: as §2, §3

human CD33 P40A = human CD33 P40A (human, UniProt P20138 18-364); assay: flow cytometry, alanine scan
Method: as §2, §3

human CD33 G34A = human CD33 G34A (human, UniProt P20138 18-364); assay: flow cytometry, alanine scan
Method: as §2, §3

human CD33 C36A = human CD33 C36A (human, UniProt P20138 18-364); assay: flow cytometry, alanine scan
Method: as §2, §3

human CD33 T30A = human CD33 T30A (human, UniProt P20138 18-364); assay: flow cytometry, alanine scan
Method: as §2, §3

human CD33 V29A = human CD33 V29A (human, UniProt P20138 18-364); assay: flow cytometry, alanine scan
Method: as §2, §3

human CD33 T42A = human CD33 T42A (human, UniProt P20138 18-364); assay: flow cytometry, alanine scan
Method: as §2, §3

human CD33 C41A = human CD33 C41A (human, UniProt P20138 18-364); assay: flow cytometry, alanine scan
Method: as §2, §3

human CD33 S28A = human CD33 S28A (human, UniProt P20138 18-364); assay: flow cytometry, alanine scan
Method: as §2, §3

human CD33 Q32A = human CD33 Q32A (human, UniProt P20138 18-364); assay: flow cytometry, alanine scan
Method: as §2, §3

human CD33 E33A = human CD33 E33A (human, UniProt P20138 18-364); assay: flow cytometry, alanine scan
Method: as §2, §3

human CD33 V31A = human CD33 V31A (human, UniProt P20138 18-364); assay: flow cytometry, alanine scan
Method: as §2, §3

human CD33 L23A = human CD33 L23A (human, UniProt P20138 18-364); assay: flow cytometry, alanine scan
Method: as §2, §3

human wild-type CD33 [2] = molecular target: T1, human wild-type CD33; assay: flow cytometry, IgG at 0.25 ug/ml on HEK293-T cells expressing CD33 against vector alone
Method: as §1

human wild-type CD33 [3] = molecular target: T1, human wild-type CD33; assay: flow cytometry, Fab at 0.25 ug/ml on HEK293-T cells expressing CD33 against vector alone
Method: (§4) Serial dilutions of each Fab were tested for immunoreactivity against cells expressing wild-type CD33 or vector alone. The optimal screening concentration for the Fabs was determined based on the raw signal values and signal-to-background calculations. Each point represents the mean of four replicates.

human wild-type CD33 [4] = molecular target: T1, human wild-type CD33; assay: flow cytometry, IgG at 0.50 ug/ml on HEK293-T cells expressing CD33 against vector alone; remark: listed apart in the source
Method: as §1

human wild-type CD33 [5] = molecular target: T1, human wild-type CD33; assay: flow cytometry, Fab at 0.25 ug/ml on HEK293-T cells expressing CD33 against vector alone; remark: listed apart in the source
Method: as §4

T1 sequence (P20138 18-364 limits assumed): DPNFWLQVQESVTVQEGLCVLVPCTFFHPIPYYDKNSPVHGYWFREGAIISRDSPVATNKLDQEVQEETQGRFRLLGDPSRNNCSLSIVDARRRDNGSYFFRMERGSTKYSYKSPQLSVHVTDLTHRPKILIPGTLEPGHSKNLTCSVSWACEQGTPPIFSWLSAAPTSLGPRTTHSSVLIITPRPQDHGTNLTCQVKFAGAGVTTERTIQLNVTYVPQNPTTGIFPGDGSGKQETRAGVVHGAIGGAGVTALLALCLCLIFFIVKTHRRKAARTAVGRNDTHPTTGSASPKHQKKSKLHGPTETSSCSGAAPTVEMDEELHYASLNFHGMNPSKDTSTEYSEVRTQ
Sequence of human CD33 W22A (P20138 18-364 W22A limits assumed): as the sequence (P20138 18-364 limits assumed) above, with W5A counted along it
Sequence of human CD33 H45A (P20138 18-364 H45A limits assumed): as the sequence (P20138 18-364 limits assumed) above, with H28A counted along it
Sequence of human CD33 F21A (P20138 18-364 F21A limits assumed): as the sequence (P20138 18-364 limits assumed) above, with F4A counted along it
Sequence of human CD33 E27A (P20138 18-364 E27A limits assumed): as the sequence (P20138 18-364 limits assumed) above, with E10A counted along it
Sequence of human CD33 V31A (P20138 18-364 V31A limits assumed): as the sequence (P20138 18-364 limits assumed) above, with V14A counted along it
Sequence of human CD33 L35A (P20138 18-364 L35A limits assumed): as the sequence (P20138 18-364 limits assumed) above, with L18A counted along it
Sequence of human CD33 V37A (P20138 18-364 V37A limits assumed): as the sequence (P20138 18-364 limits assumed) above, with V20A counted along it
Sequence of human CD33 T42A (P20138 18-364 T42A limits assumed): as the sequence (P20138 18-364 limits assumed) above, with T25A counted along it
Sequence of human CD33 D18A (P20138 18-364 D18A limits assumed): as the sequence (P20138 18-364 limits assumed) above, with D1A counted along it
Sequence of human CD33 C36A (P20138 18-364 C36A limits assumed): as the sequence (P20138 18-364 limits assumed) above, with C19A counted along it
Sequence of human CD33 N20A (P20138 18-364 N20A limits assumed): as the sequence (P20138 18-364 limits assumed) above, with N3A counted along it
Sequence of human CD33 P19A (P20138 18-364 P19A limits assumed): as the sequence (P20138 18-364 limits assumed) above, with P2A counted along it
Sequence of human CD33 G34A (P20138 18-364 G34A limits assumed): as the sequence (P20138 18-364 limits assumed) above, with G17A counted along it
Sequence of human CD33 C41A (P20138 18-364 C41A limits assumed): as the sequence (P20138 18-364 limits assumed) above, with C24A counted along it
Sequence of human CD33 P40A (P20138 18-364 P40A limits assumed): as the sequence (P20138 18-364 limits assumed) above, with P23A counted along it
Sequence of human CD33 V25A (P20138 18-364 V25A limits assumed): as the sequence (P20138 18-364 limits assumed) above, with V8A counted along it
Sequence of human CD33 L23A (P20138 18-364 L23A limits assumed): as the sequence (P20138 18-364 limits assumed) above, with L6A counted along it
Sequence of human CD33 Q24A (P20138 18-364 Q24A limits assumed): as the sequence (P20138 18-364 limits assumed) above, with Q7A counted along it
Sequence of human CD33 V39A (P20138 18-364 V39A limits assumed): as the sequence (P20138 18-364 limits assumed) above, with V22A counted along it
Sequence of human CD33 V29A (P20138 18-364 V29A limits assumed): as the sequence (P20138 18-364 limits assumed) above, with V12A counted along it
Sequence of human CD33 F44A (P20138 18-364 F44A limits assumed): as the sequence (P20138 18-364 limits assumed) above, with F27A counted along it
Sequence of human CD33 Q32A (P20138 18-364 Q32A limits assumed): as the sequence (P20138 18-364 limits assumed) above, with Q15A counted along it
Sequence of human CD33 Q26A (P20138 18-364 Q26A limits assumed): as the sequence (P20138 18-364 limits assumed) above, with Q9A counted along it
Sequence of human CD33 F43A (P20138 18-364 F43A limits assumed): as the sequence (P20138 18-364 limits assumed) above, with F26A counted along it
Sequence of human CD33 L38A (P20138 18-364 L38A limits assumed): as the sequence (P20138 18-364 limits assumed) above, with L21A counted along it
Sequence of human CD33 T30A (P20138 18-364 T30A limits assumed): as the sequence (P20138 18-364 limits assumed) above, with T13A counted along it
Sequence of human CD33 E33A (P20138 18-364 E33A limits assumed): as the sequence (P20138 18-364 limits assumed) above, with E16A counted along it
Sequence of human CD33 S28A (P20138 18-364 S28A limits assumed): as the sequence (P20138 18-364 limits assumed) above, with S11A counted along it

B1: Refmab #2 (antibody, human IgG1, V domains shown)
VH: QVQLVQSGAEVKKPGSSVKVSCKASGGTFSDYAISWVRQAPGQGLEWMGRIIPILGVADYAQKFQGRVTITADKSTRTAYMELSSLRSEDTAVYYCARNWADAFDIWGQGTMVTVSS
VL: DIQLTQSPSSLSASVGDRVTITCRASQGISSVLAWYQQKPGKAPKLLIYDASSLESGVPSRFSGSGSGTDFTLTISSLQPEDFATYYCQQFDSSITFGQGTKLEIK
notes: Full-length MAb format, human IgG1 Fc silent (PG-LALA)
Signal:Background (human wild-type CD33 [1]): 59 signal:background ratio

B2: Refmab #5 (antibody, V domains shown)
VH: QVQLVQSGAEVKKPGASVKVSCKASGYTFTNYDINWVRQAPGQGLEWIGWIYPGDGSTKYNEKFKAKATLTADTSTSTAYMELRSLRSDDTAVYYCASGYEDAMDYWGQGTTVTVSS
VL: DIQMTQSPSSLSASVGDRVTINCKASQDINSYLSWFQQKPGKAPKTLIYRANRLVDGVPSRFSGSGSGQDYTLTISSLQPEDFATYYCLQYDEFPLTFGGGTKVEIK
notes: The alanine scan used IgG or Fab
Mean % WT Binding (human CD33 V39A): 116 % of WT | Mean % WT Binding (human CD33 D18A): 139 % of WT | Mean % WT Binding (human CD33 V25A): 143 % of WT | Mean % WT Binding (human CD33 L38A): 180 % of WT | Mean % WT Binding (human CD33 L35A): 112 % of WT | Mean % WT Binding (human CD33 Q24A): 115 % of WT | Mean % WT Binding (human CD33 P19A): 114 % of WT | Mean % WT Binding (human CD33 H45A): 58.4 % of WT | Mean % WT Binding (human CD33 E27A): 186 % of WT | Mean % WT Binding (human CD33 N20A): 94.4 % of WT | Mean % WT Binding (human CD33 W22A): 114 % of WT | Mean % WT Binding (human CD33 V37A): 148 % of WT | Mean % WT Binding (human CD33 F43A): 87.8 % of WT | Mean % WT Binding (human CD33 F44A): 122 % of WT | Mean % WT Binding (human CD33 Q26A): 104 % of WT | Mean % WT Binding (human CD33 F21A): 197 % of WT | Mean % WT Binding (human CD33 P40A): 117 % of WT | Mean % WT Binding (human CD33 G34A): 101 % of WT | Mean % WT Binding (human CD33 C36A): 137 % of WT | Mean % WT Binding (human CD33 T30A): 118 % of WT | Mean % WT Binding (human CD33 V29A): 122 % of WT | Mean % WT Binding (human CD33 T42A): 115 % of WT | Mean % WT Binding (human CD33 C41A): 30.9 % of WT | Mean % WT Binding (human CD33 S28A): 105 % of WT | Mean % WT Binding (human CD33 Q32A): 148 % of WT | Mean % WT Binding (human CD33 E33A): 106 % of WT | Mean % WT Binding (human CD33 V31A): 112 % of WT | Mean % WT Binding (human CD33 L23A): 118 % of WT

B3: Refmab #5 (antibody, human IgG1, V domains shown)
VH: QVQLVQSGAEVKKPGASVKVSCKASGYTFTNYDINWVRQAPGQGLEWIGWIYPGDGSTKYNEKFKAKATLTADTSTSTAYMELRSLRSDDTAVYYCASGYEDAMDYWGQGTTVTVSS
VL: DIQMTQSPSSLSASVGDRVTINCKASQDINSYLSWFQQKPGKAPKTLIYRANRLVDGVPSRFSGSGSGQDYTLTISSLQPEDFATYYCLQYDEFPLTFGGGTKVEIK
notes: as for B1
Signal:Background (human wild-type CD33 [2]): 37 signal:background ratio

B4: Refmab #1 Fab fragment (Fab, V domains shown)
VH: EVQLVQSGAEVKKPGSSVKVSCKASGYTITDSNIHWVRQAPGQSLEWIGYIYPYNGGTDYNQKFKNRATLTVDNPTNTAYMELSSLRSEDTAFYYCVNGNPWLAYWGQGTLVTVSS
VL: DIQLTQSPSTLSASVGDRVTITCRASESLDNYGIRFLTWFQQKPGKAPKLLMYAASNQGSGVPSRFSGSGSGTEFTLTISSLQPDDFATYYCQQTKEVPWSFGQGTKVEVK
Signal:Background (human wild-type CD33 [3]): 33 signal:background ratio

More lines, now with the values ahead:

Signal:Background (human wild-type CD33 [4]): 57 signal:background ratio
B5: Refmab #6 (antibody, human IgG1, V domains shown)
VH: QVQLQQPGAEVVKPGASVKMSCKASGYTFTSYYIHWIKQTPGQGLEWVGVIYPGNDDISYNQKFQGKATLTADKSSTTAYMQLSSLTSEDSAVYYCAREVRLRYFDVWGQGTTVTVSS
VL: EIVLTQSPGSLAVSPGERVTMSCKSSQSVFFSSSQKNYLAWYQQIPGQSPRLLIYWASTRESGVPDRFTGSGSGTDFTLTISSVQPEDLAIYYCHQYLSSRTFGQGTKLEIK
notes: as for B1

Signal:Background (human wild-type CD33 [5]): 51 signal:background ratio
B6: Refmab #6 Fab fragment (Fab, V domains shown)
VH: QVQLQQPGAEVVKPGASVKMSCKASGYTFTSYYIHWIKQTPGQGLEWVGVIYPGNDDISYNQKFQGKATLTADKSSTTAYMQLSSLTSEDSAVYYCAREVRLRYFDVWGQGTTVTVSS
VL: EIVLTQSPGSLAVSPGERVTMSCKSSQSVFFSSSQKNYLAWYQQIPGQSPRLLIYWASTRESGVPDRFTGSGSGTDFTLTISSVQPEDLAIYYCHQYLSSRTFGQGTKLEIK
